# Reference: the MegaScale stability set (Tsuboyama et al. 2023)
# B1: 2M8U (parent)
# chain: TKAQVIEAFKVFDRDGNGYVTVDYLRKVLNELGDMMPADEIEEMIYEADPQNSGYVQYETFVGMLFL
# Variants of: B1
# Test: folding stability dG (cDNA display proteolysis); higher = more stable
# Conditions: PBS, room temperature
row,Variant,folding stability dG [kcal/mol]
1,TKAQVIEAFKVFDRDGNGYVTVDYLRKVLNELGDMNPADEIEEMIYEADPQNSGYVQYETFVGMLFL [M36N],3.34
2,TKAQVIEAFKVFDRDGNGYVTVDYLRKVLNELGDMLPADEIEEMIYEADPQNSGYVQYETFVGMLFL [M36L],3.72
3,TKAQVIEAFKVFDRDGNGYVTVDYLRKVLNELGDMWPADEIEEMIYEADPQNSGYVQYETFVGMLFL [M36W],4.42
4,TKAQVIEAFKVFDRDGNGYVTVDYLRKVLNELGDMPPADEIEEMIYEADPQNSGYVQYETFVGMLFL [M36P],3.63
5,TKAQVIEAFKVFDRDGNGYVTVDYLRKVLNELGDMDPADEIEEMIYEADPQNSGYVQYETFVGMLFL [M36D],2.72
6,TKAQVIEAFKVFDRDGNGYVTVDYLRKVLNELGDMCPADEIEEMIYEADPQNSGYVQYETFVGMLFL [M36C],3.44
7,TKAQVIEAFKVFDRDGNGYVTVDYLRKVLNELGDMQPADEIEEMIYEADPQNSGYVQYETFVGMLFL [M36Q],3.19
8,TKAQVIEAFKVFDRDGNGYVTVDYLRKVLNELGDMYPADEIEEMIYEADPQNSGYVQYETFVGMLFL [M36Y],3.57
9,TKAQVIEAFKVFDRDGNGYVTVDYLRKVLNELGDMFPADEIEEMIYEADPQNSGYVQYETFVGMLFL [M36F],4.23
10,TKAQVIEAFKVFDRDGNGYVTVDYLRKVLNELGDMVPADEIEEMIYEADPQNSGYVQYETFVGMLFL [M36V],3.81
11,TKAQVIEAFKVFDRDGNGYVTVDYLRKVLNELGDMSPADEIEEMIYEADPQNSGYVQYETFVGMLFL [M36S],3.41
12,TKAQVIEAFKVFDRDGNGYVTVDYLRKVLNELGDMTPADEIEEMIYEADPQNSGYVQYETFVGMLFL [M36T],3.65
13,TKAQVIEAFKVFDRDGNGYVTVDYLRKVLNELGDMRPADEIEEMIYEADPQNSGYVQYETFVGMLFL [M36R],3.6
14,TKAQVIEAFKVFDRDGNGYVTVDYLRKVLNELGDMKPADEIEEMIYEADPQNSGYVQYETFVGMLFL [M36K],3.66
15,TKAQVIEAFKVFDRDGNGYVTVDYLRKVLNELGDMGPADEIEEMIYEADPQNSGYVQYETFVGMLFL [M36G],3.48
16,TKAQVIEAFKVFDRDGNGYVTVDYLRKVLNELGDMHPADEIEEMIYEADPQNSGYVQYETFVGMLFL [M36H],3.99
17,TKAQVIEAFKVFDRDGNGYVTVDYLRKVLNELGDMEPADEIEEMIYEADPQNSGYVQYETFVGMLFL [M36E],2.77
18,TKAQVIEAFKVFDRDGNGYVTVDYLRKVLNELGDMIPADEIEEMIYEADPQNSGYVQYETFVGMLFL [M36I],3.75
19,TKAQVIEAFKVFDRDGNGYVTVDYLRKVLNELGDMAPADEIEEMIYEADPQNSGYVQYETFVGMLFL [M36A],3.8
20,TKAQVIEAFKVFDRDGNGYVTVDYLRKVLNELGVMMPADEIEEMIYEADPQNSGYVQYETFVGMLFL [D34V],4.2
21,TKAQVIEAFKVFDRDGNGYVTVDYLRKVLNELGYMMPADEIEEMIYEADPQNSGYVQYETFVGMLFL [D34Y],4.42
22,TKAQVIEAFKVFDRDGNGYVTVDYLRKVLNELGWMMPADEIEEMIYEADPQNSGYVQYETFVGMLFL [D34W],4.49
23,TKAQVIEAFKVFDRDGNGYVTVDYLRKVLNELGSMMPADEIEEMIYEADPQNSGYVQYETFVGMLFL [D34S],3.32
24,TKAQVIEAFKVFDRDGNGYVTVDYLRKVLNELGTMMPADEIEEMIYEADPQNSGYVQYETFVGMLFL [D34T],3.51
25,TKAQVIEAFKVFDRDGNGYVTVDYLRKVLNELGDCMPADEIEEMIYEADPQNSGYVQYETFVGMLFL [M35C],3.25
26,TKAQVIEAFKVFDRDGNGYVTVDYLRKVLNELGDRMPADEIEEMIYEADPQNSGYVQYETFVGMLFL [M35R],3.02
27,TKAQVIEAFKVFDRDGNGYVTVDYLRKVLNELGDIMPADEIEEMIYEADPQNSGYVQYETFVGMLFL [M35I],3.69

row,Variant,folding stability dG [kcal/mol]
1,TKAQVIEAFKVFDRDGNGYVTVDYLRKVLNELGDPMPADEIEEMIYEADPQNSGYVQYETFVGMLFL [M35P],3.12
2,TKAQVIEAFKVFDRDGNGYVTVDYLRKVLNELGDWMPADEIEEMIYEADPQNSGYVQYETFVGMLFL [M35W],3.6
3,TKAQVIEAFKVFDRDGNGYVTVDYLRKVLNELGDQMPADEIEEMIYEADPQNSGYVQYETFVGMLFL [M35Q],3.09
4,TKAQVIEAFKVFDRDGNGYVTVDYLRKVLNELGDHMPADEIEEMIYEADPQNSGYVQYETFVGMLFL [M35H],3.01
5,TKAQVIEAFKVFDRDGNGYVTVDYLRKVLNELGDDMPADEIEEMIYEADPQNSGYVQYETFVGMLFL [M35D],2.96
6,TKAQVIEAFKVFDRDGNGYVTVDYLRKVLNELGDTMPADEIEEMIYEADPQNSGYVQYETFVGMLFL [M35T],3.14
7,TKAQVIEAFKVFDRDGNGYVTVDYLRKVLNELGDYMPADEIEEMIYEADPQNSGYVQYETFVGMLFL [M35Y],3.33
8,TKAQVIEAFKVFDRDGNGYVTVDYLRKVLNELGDNMPADEIEEMIYEADPQNSGYVQYETFVGMLFL [M35N],2.96
9,TKAQVIEAFKVFDRDGNGYVTVDYLRKVLNELGDVMPADEIEEMIYEADPQNSGYVQYETFVGMLFL [M35V],3.38
10,TKAQVIEAFKVFDRDGNGYVTVDYLRKVLNELGDLMPADEIEEMIYEADPQNSGYVQYETFVGMLFL [M35L],3.68
11,TKAQVIEAFKVFDRDGNGYVTVDYLRKVLNELGDEMPADEIEEMIYEADPQNSGYVQYETFVGMLFL [M35E],2.98
12,TKAQVIEAFKVFDRDGNGYVTVDYLRKVLNELGDGMPADEIEEMIYEADPQNSGYVQYETFVGMLFL [M35G],2.95
13,TKAQVIEAFKVFDRDGNGYVTVDYLRKVLNELGDFMPADEIEEMIYEADPQNSGYVQYETFVGMLFL [M35F],3.9
14,TKAQVIEAFKVFDRDGNGYVTVDYLRKVLNELGDAMPADEIEEMIYEADPQNSGYVQYETFVGMLFL [M35A],3.09
15,TKAQVIEAFKVFDRDGNGYVTVDYLRKVLNELGDSMPADEIEEMIYEADPQNSGYVQYETFVGMLFL [M35S],3.07
16,TKAQVIEAFKVFDRDGNGYVTVDYLRKVLNELGDKMPADEIEEMIYEADPQNSGYVQYETFVGMLFL [M35K],3.16
17,TKAQVIEAFKVFDRDGNGYVTVDYLRKVLNELGDMMFADEIEEMIYEADPQNSGYVQYETFVGMLFL [P37F],3.57
18,TKAQVIEAFKVFDRDGNGYVTVDYLRKVLNELGDMMSADEIEEMIYEADPQNSGYVQYETFVGMLFL [P37S],3.33
19,TKAQVIEAFKVFDRDGNGYVTVDYLRKVLNELGDMMWADEIEEMIYEADPQNSGYVQYETFVGMLFL [P37W],3.79
20,TKAQVIEAFKVFDRDGNGYVTVDYLRKVLNELGDMMVADEIEEMIYEADPQNSGYVQYETFVGMLFL [P37V],3.34
21,TKAQVIEAFKVFDRDGNGYVTVDYLRKVLNELGDMMLADEIEEMIYEADPQNSGYVQYETFVGMLFL [P37L],3.45
22,TKAQVIEAFKVFDRDGNGYVTVDYLRKVLNELGDMMIADEIEEMIYEADPQNSGYVQYETFVGMLFL [P37I],3.41
23,TKAQVIEAFKVFDRDGNGYVTVDYLRKVLNELGDMMRADEIEEMIYEADPQNSGYVQYETFVGMLFL [P37R],3.45
24,TKAQVIEAFKVFDRDGNGYVTVDYLRKVLNELGDMMEADEIEEMIYEADPQNSGYVQYETFVGMLFL [P37E],3.34
25,TKAQVIEAFKVFDRDGNGYVTVDYLRKVLNELGDMMKADEIEEMIYEADPQNSGYVQYETFVGMLFL [P37K],3.7
26,TKAQVIEAFKVFDRDGNGYVTVDYLRKVLNELGDMMTADEIEEMIYEADPQNSGYVQYETFVGMLFL [P37T],3.32
27,TKAQVIEAFKVFDRDGNGYVTVDYLRKVLNELGDMMMADEIEEMIYEADPQNSGYVQYETFVGMLFL [P37M],3.3

row,Variant,folding stability dG [kcal/mol]
1,TKAQVIEAFKVFDRDGNGYVTVDYLRKVLNELGDMMYADEIEEMIYEADPQNSGYVQYETFVGMLFL [P37Y],3.44
2,TKAQVIEAFKVFDRDGNGYVTVDYLRKVLNELGDMMGADEIEEMIYEADPQNSGYVQYETFVGMLFL [P37G],3.36
3,TKAQVIEAFKVFDRDGNGYVTVDYLRKVLNELGDMMCADEIEEMIYEADPQNSGYVQYETFVGMLFL [P37C],3.49
4,TKAQVIEAFKVFDRDGNGYVTVDYLRKVLNELGDMMNADEIEEMIYEADPQNSGYVQYETFVGMLFL [P37N],3.6
5,TKAQVIEAFKVFDRDGNGYVTVDYLRKVLNELGDMMDADEIEEMIYEADPQNSGYVQYETFVGMLFL [P37D],3.26
6,TKAQVIEAFKVFDRDGNGYVTVDYLRKVLNELGDMMHADEIEEMIYEADPQNSGYVQYETFVGMLFL [P37H],3.46
7,TKAQVIEAFKVFDRDGNGYVTVDYLRKVLNELGDMMAADEIEEMIYEADPQNSGYVQYETFVGMLFL [P37A],3.1
8,TKAQVIEAFKVFDRDGNGYVTVDYLRKVLNELGDMMQADEIEEMIYEADPQNSGYVQYETFVGMLFL [P37Q],3.43
9,TKAQVIEAFKVFDRDGNGYVTVDYLRKVLNELGDMMPSDEIEEMIYEADPQNSGYVQYETFVGMLFL [A38S],3.56
10,TKAQVIEAFKVFDRDGNGYVTVDYLRKVLNELGDMMPQDEIEEMIYEADPQNSGYVQYETFVGMLFL [A38Q],3.69
11,TKAQVIEAFKVFDRDGNGYVTVDYLRKVLNELGDMMPNDEIEEMIYEADPQNSGYVQYETFVGMLFL [A38N],3.45
12,TKAQVIEAFKVFDRDGNGYVTVDYLRKVLNELGDMMPCDEIEEMIYEADPQNSGYVQYETFVGMLFL [A38C],3.52
13,TKAQVIEAFKVFDRDGNGYVTVDYLRKVLNELGDMMPMDEIEEMIYEADPQNSGYVQYETFVGMLFL [A38M],3.76
14,TKAQVIEAFKVFDRDGNGYVTVDYLRKVLNELGDMMPDDEIEEMIYEADPQNSGYVQYETFVGMLFL [A38D],3.32
15,TKAQVIEAFKVFDRDGNGYVTVDYLRKVLNELGDMMPKDEIEEMIYEADPQNSGYVQYETFVGMLFL [A38K],3.69
16,TKAQVIEAFKVFDRDGNGYVTVDYLRKVLNELGDMMPFDEIEEMIYEADPQNSGYVQYETFVGMLFL [A38F],3.53
17,TKAQVIEAFKVFDRDGNGYVTVDYLRKVLNELGDMMPGDEIEEMIYEADPQNSGYVQYETFVGMLFL [A38G],3.41
18,TKAQVIEAFKVFDRDGNGYVTVDYLRKVLNELGDMMPTDEIEEMIYEADPQNSGYVQYETFVGMLFL [A38T],3.6
19,TKAQVIEAFKVFDRDGNGYVTVDYLRKVLNELGDMMPPDEIEEMIYEADPQNSGYVQYETFVGMLFL [A38P],3.47
20,TKAQVIEAFKVFDRDGNGYVTVDYLRKVLNELGDMMPWDEIEEMIYEADPQNSGYVQYETFVGMLFL [A38W],4
21,TKAQVIEAFKVFDRDGNGYVTVDYLRKVLNELGDMMPRDEIEEMIYEADPQNSGYVQYETFVGMLFL [A38R],3.62
22,TKAQVIEAFKVFDRDGNGYVTVDYLRKVLNELGDMMPVDEIEEMIYEADPQNSGYVQYETFVGMLFL [A38V],3.61
23,TKAQVIEAFKVFDRDGNGYVTVDYLRKVLNELGDMMPIDEIEEMIYEADPQNSGYVQYETFVGMLFL [A38I],3.69
24,TKAQVIEAFKVFDRDGNGYVTVDYLRKVLNELGDMMPHDEIEEMIYEADPQNSGYVQYETFVGMLFL [A38H],3.57
25,TKAQVIEAFKVFDRDGNGYVTVDYLRKVLNELGDMMPEDEIEEMIYEADPQNSGYVQYETFVGMLFL [A38E],3.43
26,TKAQVIEAFKVFDRDGNGYVTVDYLRKVLNELGDMMPLDEIEEMIYEADPQNSGYVQYETFVGMLFL [A38L],3.59
